# The DeepSol protein solubility set
# Test: soluble on expression in E. coli; label from the status in PepcDB or PDB records
row,Sequence,soluble on expression in E. coli
1,MKENAVRRANDPKRREKIIQATLEAVKTYGVHAVTHRKIAAIAQVPLGSMTYYFAGMDALLSEAFTLFTENMSRQYQDFFAQVTDAEGACQAITEMIYGSQVTTPDNMALMYQLYAYASDKPALKIVMQNWMQRSQNTLAQWFDAQTARALDAFIEGMTLHFVTDRTPLAREAILQMVKRIAGVSMSCHSALGNKKPTNLEPKWRG,not soluble
2,MGSDKIHHHHHHMKFEVASNVLLQHLQLIARVIASRSTLPILESVLFELEGDQLRLTAADMANRMSTELTVNNVGGENGSFAVPERILLEPLKELPDQPISFEINMETKAAEIAYSNGHYSFVVQDVSTYPVAASLSPEAIVSIVPAEALLSGLSATLFATSQDERRPIMTGVYLDFFEDKLVFVGSDGQILVKQEDANVQSRRRSAFCLPRKACLLLRNVLPRLEGDVTLTYDSNYLHIELGNYTLRARLLEGRYPNYNSVIPTSNPFSVKVDRAQLLSGAKRVSIFSNPATSMLRMEFTPAGIRLSANDIDFSVAAEEHVPAECPADINMRIGFKSDVFQTILQGMPSEEVIMTLADQTRAGLILPAENAPGISLCNLLLPMKLIGE,not soluble
3,SLIDFHFHAPVKEFLDFLGEFGEPAIKYFNAKVEVKGLKETLDYYESFGIKRFVVLPIDSTTFLGRRIPNQVINLDDRIVKFISVDPSKPNADEELKRSIKEFEPVGVKLHPQLQGFHPLDERALKIYEIIDNHGLIVVFHTGTSGIGAGVKSSIRLDYGRPIYFDEIAVRFQNMKIILAHFGWPWTEEAIAIALHKPNVYLDLSGWAPRYIPQVIWSNAKRLSDKLLFGSDFPLIRPERWLEEFKSVNLSQDIKDKILKHNAEKLVKKS,soluble
4,MRRILSVLLENESGALSRVVGLFSQRAFNIESLTVAPTDDPTLSRMTIEAVGDAQALEQIEKQLHKLVDVFKVVNLSEQEHIEREIVLAKVRAVGSSRDEIKRLADIFRGQIVDVTPKSYTIQLSGTNDKVDAFISALKEETTLLEIVRSGLISVSRGEKNILLEHHHHHH,not soluble
5,MSGDDDIPEGLEAINLKMNATTDDSLESTRRMLALCEESKEAGIKTLVMLDDQGEQLERCEGALDTINQDMKEAEDHLKGMEKCCGLCVLPWNKTDDFEKTEFAKAWKKDDDGGVISDQPRITVGDSSMGPQGGYITKITNDAREDEMDENVQQVSTMVGNLRNMAIDMSTEVSNQNRQLDRIHDKAQSNEVRVESANKRAKNLITK,not soluble
6,GPGSMDVYRQAAEIVGIVREGNGTAKALCLRKDMQKKKQTYAVVCETLRHYELLEDVLEVAEFFKYYPQANHEFAMCMAYDVVLGKGVNTHNDSTARAVSHSASYLREAYWQVRKHHVIPPRSSEKLDDEVAADTEGGARGKRRSGDSVSSSPSLQLPRYARVNTLKISVEELVSRLRRSAEVRKRARDAKDNDGDAAASSHPQQQNGDKRATRRASSRPHRPLPEFTQDPVVPHLLVFPPGTDLHAHPAVRSGQLILQDRASCLPAAVLLDAVPVEVIEGDTAGSSKGRKKAKGGTALGKEKGRGNETDAAARRPLEYVVDACAAPGNKTTQLAALGAPHIKIMATERDERRADLLSKRVASLGAADYVNVVSMDFFQLSSDDRAATEGILLDPSCSASGVMTRVDVALQHHHHHHHEQQRKGKARQADRRVSLLQGSRRGSHHEDADRNAAEEGQLDDGDREETANSGAINPAAQGNEFSMKEERVEKLARLQRKLLAHSLLSFDNCRTVVYSTCSVHEEENEEVVRQVLDDERVKARGWRLSNIMPNTWKTRGAEREGEEHPLRFTIRCDPATEATNGFYVARFDRVC,soluble
